Consider 10 molecules from US20110059889A1 (SYNTONIX PHARMACEUTICALS, published 2011).

Test [1] addresses T1, soluble human FcRn (shFcRn) (human, UniProt P55899 24-297; P61769 21-119).
T1 construct: Biotinylated for the ELISA, amine-coupled to a CM5 chip for SPR; also called biotinylated shFcRn
Description: SPR pH 6; Orn in place of His.
Description: (§1) The following steps were performed to cross-link soluble human or cynomolgus FcRn to the dextran surface of a CM5 sensor chip (Biacore AB, Uppsala, Sweden) by an amine coupling reaction involving 1-ethyl-(3-dimethylaminopropyl)-carbodiimide hydrochloride (EDC) (Biacore AB, Uppsala, Sweden) and N-hydroxysuccinimide (NHS) (Biacore AB, Uppsala, Sweden) as recommended by Biacore (BIAapplications Handbook, version AB, section 4.2, Biacore AB, Uppsala, Sweden). […] Residual sites on the FcRn flow cell were blocked with 1 M ethanolamine hydrochloride pH 8.5 (Biacore AB, Uppsala, Sweden). A control flow cell was blocked with ethanolamine for reference subtraction. For analysis of the monomeric peptides, FcRn was coated to a final density of 4000-5000 response units (RU). For analysis of the peptide dimers, FcRn was coated to a density of 2000-2500 RU. All SPR measurements were performed using a BIACORE 3000 Instrument (Biacore AB Uppsala, Sweden). For measurements done at either pH 6 or pH 7.4, experiments were performed in 50 mM phosphate, 100 mM sodium chloride, 0.01% surfactant P20 (Biacore AB, Uppsala, Sweden).
(§2) Ten, 2-fold dilutions of the peptide were injected over the FcRn-CM5 chip at a rate of 20 μl/min for 2 min. The peptide was dissociated from the chip for 2.5 minutes with buffer. […] Sensorgrams were generated and analyzed using BiaEval software version 3.1 (Biacore AB, Uppsala, Sweden). […]

Test [2] has as its target T1, soluble human FcRn (shFcRn). Description: SPR pH 6.
Description: as §1, §2
Test [3] shares this target. Kind of test: IgG competition ELISA.
Description: (§3) The wells were coated with 100 μl/well of 1 μg/ml biotinylated-shFcRn in Buffer A. The plate was sealed and incubated at 37° C. for 2 hours. Afterwards, the plate was washed with 200 μl/well of Buffer B (Buffer B: 100 mM MES pH 6, 150 mM NaCl, 0.5% BSA IgG-free (Jackson ImmunoResearch, West Grove, Pa.), 0.05% Tween-20). […] To allow for mixing, the plate was rocked for 2 minutes, sealed and incubated at 37° C. for 2 hours. […] The plate was covered, incubated for 30 minutes at room temperature and washed 4 times with 200 μl/well of ice-cold buffer B. SureBlue TMB substrate solution (100 μl/well, KPL, Gaithersburg, Md.) was added and the plate was allowed to incubate at room temperature until color developed, which took 5 to 10 minutes. Once color developed, 100 μl/well of TMB stop solution (KPL, Gaithersburg, Md.) was added and the absorbance was measured at 450 nm. The data was plotted as absorbance vs. peptide concentration to derive the inhibitory concentration 50% (IC₅₀) values.
The target is the same in test [4]. Kind of test: IgG competition ELISA. This is another data set of the same source. (An ELISA detects its analyte on a solid surface through an enzyme-linked reagent.)
The target is the same in test [5]. Kind of test: IgG competition ELISA. This is another data set of the same source.
Description: as §3
The target is the same in test [6]. Description: IgG competition ELISA. This is another data set of the same source.
Description: as §3
The target is the same in test [7]. Kind of test: SPR pH 6. This is another data set of the same source.
Description: as §1
(§4) Ten, 2-fold dilutions of the peptide were injected over the FcRn-CM5 chip at a rate of 20 μl/min for 2 min. The peptide was dissociated from the chip for 2.5 minutes with buffer. Any remaining peptide was removed from the chip with a 30 second injection of HBS-P buffer (Biacore AB, Uppsala, Sweden) at a rate of 30 μl/min. Sensorgrams were generated and analyzed using BiaEval software version 3.1 (Biacore AB, Uppsala, Sweden). The equilibrium RU observed for each injection was plotted against concentration. The equilibrium KD values were derived by analysis of the plots using the steady state affinity model included in the BiaEval software.
Test [8] has the same target. Kind of test: SPR pH 6. This is another data set of the same source.
Description: as §1, §4
Test [9] has the same target. Kind of test: IgG competition ELISA. The source holds these as a separate data set.
Description: as §3
Test [10] has the same target. Kind of test: IgG competition ELISA. The source holds these as a separate data set.
Description: as §3
For test [11] the target is unchanged. Kind of test: SPR pH 6. This is another data set of the same source.
Description: as §1, §4
Test [12] shares this target. Kind of test: IgG competition ELISA. The source holds these as a separate data set.
Description: as §3
Test [13] has the same target. Description: SPR pH 6. The source holds these as a separate data set.
Description: as §1, §4
The target is the same in test [14]. Kind of test: IgG competition ELISA. The source holds these as a separate data set.
Test [15] shares this target. Kind of test: SPR pH 6. The source holds these as a separate data set.
Description: as §1, §4
Test [16] has the same target. Description: IgG competition ELISA. This is another data set of the same source.
Description: as §3
Test [17] shares this target. Kind of test: SPR pH 6. The source holds these as a separate data set.
Description: as §1, §2
Test [18] has the same target. Description: SPR pH 6. This is another data set of the same source.
Description: as §1, §4
Test [19] shares this target. Description: SPR pH 6. The source holds these as a separate data set.
Description: as §1, §2
Test [20] has the same target. Kind of test: SPR pH 6. This is another data set of the same source.
Description: as §1, §2
Test [21] has the same target. Kind of test: IgG competition ELISA. The source holds these as a separate data set.
Description: as §3
The target is the same in test [22]. Description: IgG competition ELISA. The source holds these as a separate data set.
Description: as §3
The target is the same in test [23]. Kind of test: SPR pH 6. This is another data set of the same source.
Description: as §1, §4
The target is the same in test [24]. Description: SPR pH 6; 2-PyrrolidinylAla in place of His.
Description: as §1, §2
Test [25] shares this target. Description: SPR pH 6; 4-PiperidylAla in place of His.
Description: as §1, §2
Test [26] has the same target. Description: SPR pH 7.4; 4-PiperidylAla in place of His.
Description: as §1, §2
Test [27] has the same target. Kind of test: SPR pH 7.4; ThienylAla in place of His.
Description: as §1, §2
For test [28] the target is unchanged. Kind of test: SPR pH 6; ThienylAla in place of His.
Description: as §1, §2
For test [29] the target is unchanged. Kind of test: SPR pH 6; 3PyridylAla in place of His.
Description: as §1, §2
Test [30] shares this target. Description: SPR pH 7.4; 3PyridylAla in place of His.
Description: as §1, §2
The target is the same in test [31]. Description: SPR pH 6; 4-nitro-Phe in place of Tyr; Pen backbone.
Description: as §1, §2
Test [32] shares this target. Kind of test: SPR pH 7.4.
Description: as §1, §2
Test [33] shares this target. Kind of test: SPR pH 7.4. The source holds these as a separate data set.
Description: as §1, §2
Test [34] shares this target. Description: SPR pH 6; Peptide No. 87: Pen, 2-nitro-Tyr for Tyr (QRF-Pen-TGHFGGL-(2-nitro-Tyr)-PCNGP).
Description: as §1, §2

Where two headings read alike, the source gives them in different places. Numbered stars: 1 amine (or outer) side, 2 acyl side, 3 side chain; on linkers, the order of the positions; unused ones are H or OH. Bridge positions count the residues as written; N and C are the ends. Square brackets hold non-standard residues; d marks the D form. Ends that are not written are not given here. Tyr(2-NO2) = 2-nitro-Tyr, O=C([C@H](Cc1ccc(O[*:3])cc1[N+](=O)[O-])N[*:1])[*:2]; Phe(4-NO2) = N[C@@H](Cc1ccc([N+](=O)[O-])cc1)C(=O)O; Phe(4-F) = N[C@@H](Cc1ccc(F)cc1)C(=O)O; Pen = CC(C)(S)[C@H](N)C(=O)O

T1 sequence (P55899 24-297 limits assumed, chain 1 of 2): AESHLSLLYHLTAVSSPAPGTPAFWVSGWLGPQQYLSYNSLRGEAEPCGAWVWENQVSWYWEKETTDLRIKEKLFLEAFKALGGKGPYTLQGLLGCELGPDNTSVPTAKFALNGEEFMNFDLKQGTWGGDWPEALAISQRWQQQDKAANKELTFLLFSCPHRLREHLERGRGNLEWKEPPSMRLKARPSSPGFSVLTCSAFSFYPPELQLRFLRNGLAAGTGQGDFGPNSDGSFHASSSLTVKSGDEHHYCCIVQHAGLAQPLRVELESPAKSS
T1 sequence (P61769 21-119 limits assumed, chain 2 of 2): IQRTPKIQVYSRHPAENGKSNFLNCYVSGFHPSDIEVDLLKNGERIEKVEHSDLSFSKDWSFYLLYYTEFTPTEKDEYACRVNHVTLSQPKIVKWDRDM

B1: Peptide No. 254 (peptide)
peptide: RFCTGXFGGLYPC
modifications: Pen 3; Orn 6; Sar 9; NMeL 10; disulfide 3-13; C-terminal amide
With B1, in test [1], the Kd (in general, a measure of binding affinity in units of concentration) is 1300 nM.

B2: Peptide No. 32 (peptide)
peptide: QRF[Pen]TGHFGGLYPCNGP-NH2
modifications: disulfide 4-14; N-terminus assumed
SMILES: CC(C)C[C@@H]1NC(=O)CNC(=O)CNC(=O)[C@H](Cc2ccccc2)NC(=O)[C@H](Cc2c[nH]cn2)NC(=O)CNC(=O)[C@H]([C@@H](C)O)NC(=O)[C@@H](NC(=O)[C@H](Cc2ccccc2)NC(=O)[C@H](CCCNC(=N)N)NC(=O)[C@@H](N)CCC(N)=O)C(C)(C)SSC[C@@H](C(=O)N[C@@H](CC(N)=O)C(=O)NCC(=O)N2CCC[C@H]2C(N)=O)NC(=O)[C@@H]2CCCN2C(=O)[C@H](Cc2ccc(O)cc2)NC1=O
Take B2: the Kd in [2], in test [7], in test [8], in test [11], in test [13] and in test [15] was 250 nM in each case. In addition, the Kd in test [17], in [18], in [19], in test [20] and in test [23] was 250 nM throughout. Besides, the half-maximal inhibitory concentration (IC50) in test [3], in test [4], in [5], in test [6], in test [9] and in test [10] was 2000 nM throughout. Also, the IC50 in test [12], in test [14], in test [16], in [21] and in test [22] was 2000 nM in each case.

B3: Peptide No. 262 (peptide)
peptide: RFCTGXFGGLYPC
modifications: Pen 3; 2-PyrrolidinylAla 6; Sar 9; NMeLeu 10; disulfide 3-13; C-terminal amide
The molecule B3 returned a dissociation constant Kd in test [24] of 8400 nM.

B4: Peptide No. 264 (peptide)
peptide: RFCTGXFGGLYPC
modifications: Pen 3; 4-PiperidylAla 6; Sar 9; NMeLeu 10; disulfide 3-13; C-terminal amide
In the case of B4, the dissociation constant (Kd) in [25] came out at 5200 nM; in test [26] it was 6400 nM. For the same molecule, the concentration for half-maximal inhibition (IC50) (commonly the concentration needed to halve the response being measured) in test [16] is 85000 nM.

B5: Peptide No. 251 (peptide)
peptide: RFCTGXFGGLYPC
modifications: Pen 3; ThienylAla 6; Sar 9; NMeL 10; disulfide 3-13; C-terminal amide
For the molecule B5, the figures for the Kd in test [27] and in test [28] were 3000 nM and 2000 nM, respectively. This molecule also came in with an IC50 in test [16] of 45000 nM.

B6: Peptide No. 250 (peptide)
peptide: RFCTGXFGGLYPC
modifications: Pen 3; 3PyridylAla 6; Sar 9; NMeL 10; disulfide 3-13; C-terminal amide
B6: the dissociation constant Kd is 64 nM in [29] and 260 nM in test [30]. The molecule also had a half-inhibitory concentration (IC50) in [16] of 1200 nM.

B7: Peptide No. 68 (peptide)
peptide: QRF[Pen]TGHFGGL[Phe(4-NO2)]PCNGP-NH2
modifications: disulfide 4-14; N-terminus assumed
SMILES: CC(C)C[C@@H]1NC(=O)CNC(=O)CNC(=O)[C@H](Cc2ccccc2)NC(=O)[C@H](Cc2c[nH]cn2)NC(=O)CNC(=O)[C@H]([C@@H](C)O)NC(=O)[C@@H](NC(=O)[C@H](Cc2ccccc2)NC(=O)[C@H](CCCNC(=N)N)NC(=O)[C@@H](N)CCC(N)=O)C(C)(C)SSC[C@@H](C(=O)N[C@@H](CC(N)=O)C(=O)NCC(=O)N2CCC[C@H]2C(N)=O)NC(=O)[C@@H]2CCCN2C(=O)[C@H](Cc2ccc([N+](=O)[O-])cc2)NC1=O
In the case of B7, binding in test [31] was put at a Kd of 180000 nM.

B8: Peptide No. 84 (peptide)
peptide: QRF[Pen]TGHFGGHYPCNGP-NH2
modifications: disulfide 4-14; N-terminus assumed
SMILES: C[C@@H](O)[C@@H]1NC(=O)[C@@H](NC(=O)[C@H](Cc2ccccc2)NC(=O)[C@H](CCCNC(=N)N)NC(=O)[C@@H](N)CCC(N)=O)C(C)(C)SSC[C@@H](C(=O)N[C@@H](CC(N)=O)C(=O)NCC(=O)N2CCC[C@H]2C(N)=O)NC(=O)[C@@H]2CCCN2C(=O)[C@H](Cc2ccc(O)cc2)NC(=O)[C@H](Cc2c[nH]cn2)NC(=O)CNC(=O)CNC(=O)[C@H](Cc2ccccc2)NC(=O)[C@H](Cc2c[nH]cn2)NC(=O)CNC1=O
Regarding B8, the Kd in [7] was determined as 380 nM; in [32] it was 2500 nM.

B9: Peptide No. 140 (peptide)
peptide: QRF[Pen]TGHFGGL[Phe(4-F)]PCNGP-NH2
modifications: disulfide 4-14; N-terminus assumed
SMILES: CC(C)C[C@@H]1NC(=O)CNC(=O)CNC(=O)[C@H](Cc2ccccc2)NC(=O)[C@H](Cc2c[nH]cn2)NC(=O)CNC(=O)[C@H]([C@@H](C)O)NC(=O)[C@@H](NC(=O)[C@H](Cc2ccccc2)NC(=O)[C@H](CCCNC(=N)N)NC(=O)[C@@H](N)CCC(N)=O)C(C)(C)SSC[C@@H](C(=O)N[C@@H](CC(N)=O)C(=O)NCC(=O)N2CCC[C@H]2C(N)=O)NC(=O)[C@@H]2CCCN2C(=O)[C@H](Cc2ccc(F)cc2)NC1=O
In test [9], B9 registered a half-maximal inhibitory concentration (IC50) of 26000 nM. For the same molecule, binding in test [33] was characterised by a dissociation constant (Kd) of 24000 nM.

B10: Peptide No. 87 (peptide)
peptide: QRF[Pen]TGHFGGL[Tyr(2-NO2)]PCNGP-NH2
modifications: disulfide 4-14; N-terminus assumed
SMILES: CC(C)C[C@@H]1NC(=O)CNC(=O)CNC(=O)[C@H](Cc2ccccc2)NC(=O)[C@H](Cc2c[nH]cn2)NC(=O)CNC(=O)[C@H]([C@@H](C)O)NC(=O)[C@@H](NC(=O)[C@H](Cc2ccccc2)NC(=O)[C@H](CCCNC(=N)N)NC(=O)[C@@H](N)CCC(N)=O)C(C)(C)SSC[C@@H](C(=O)N[C@@H](CC(N)=O)C(=O)NCC(=O)N2CCC[C@H]2C(N)=O)NC(=O)[C@@H]2CCCN2C(=O)[C@H](Cc2ccc(O)cc2[N+](=O)[O-])NC1=O
Regarding B10, binding in test [34] was characterised by a dissociation constant (Kd) of 290000 nM.
